Assay results published in US20170190753A1 (LABORATOIRE FRANCAIS DU FRACTIONNEMENT ET DES …, published 2017).
One block for each binder: values may come before it.

Target: C3 convertase complex (UniProt P01024 23-1663; P00751 260-764)
Test: cell-based or functional assay
For C3 convertase activity % of the control in this document: test concentration or dose not given here.

Chain of C3 convertase complex (P01024 23-1663, chain 1 of 2): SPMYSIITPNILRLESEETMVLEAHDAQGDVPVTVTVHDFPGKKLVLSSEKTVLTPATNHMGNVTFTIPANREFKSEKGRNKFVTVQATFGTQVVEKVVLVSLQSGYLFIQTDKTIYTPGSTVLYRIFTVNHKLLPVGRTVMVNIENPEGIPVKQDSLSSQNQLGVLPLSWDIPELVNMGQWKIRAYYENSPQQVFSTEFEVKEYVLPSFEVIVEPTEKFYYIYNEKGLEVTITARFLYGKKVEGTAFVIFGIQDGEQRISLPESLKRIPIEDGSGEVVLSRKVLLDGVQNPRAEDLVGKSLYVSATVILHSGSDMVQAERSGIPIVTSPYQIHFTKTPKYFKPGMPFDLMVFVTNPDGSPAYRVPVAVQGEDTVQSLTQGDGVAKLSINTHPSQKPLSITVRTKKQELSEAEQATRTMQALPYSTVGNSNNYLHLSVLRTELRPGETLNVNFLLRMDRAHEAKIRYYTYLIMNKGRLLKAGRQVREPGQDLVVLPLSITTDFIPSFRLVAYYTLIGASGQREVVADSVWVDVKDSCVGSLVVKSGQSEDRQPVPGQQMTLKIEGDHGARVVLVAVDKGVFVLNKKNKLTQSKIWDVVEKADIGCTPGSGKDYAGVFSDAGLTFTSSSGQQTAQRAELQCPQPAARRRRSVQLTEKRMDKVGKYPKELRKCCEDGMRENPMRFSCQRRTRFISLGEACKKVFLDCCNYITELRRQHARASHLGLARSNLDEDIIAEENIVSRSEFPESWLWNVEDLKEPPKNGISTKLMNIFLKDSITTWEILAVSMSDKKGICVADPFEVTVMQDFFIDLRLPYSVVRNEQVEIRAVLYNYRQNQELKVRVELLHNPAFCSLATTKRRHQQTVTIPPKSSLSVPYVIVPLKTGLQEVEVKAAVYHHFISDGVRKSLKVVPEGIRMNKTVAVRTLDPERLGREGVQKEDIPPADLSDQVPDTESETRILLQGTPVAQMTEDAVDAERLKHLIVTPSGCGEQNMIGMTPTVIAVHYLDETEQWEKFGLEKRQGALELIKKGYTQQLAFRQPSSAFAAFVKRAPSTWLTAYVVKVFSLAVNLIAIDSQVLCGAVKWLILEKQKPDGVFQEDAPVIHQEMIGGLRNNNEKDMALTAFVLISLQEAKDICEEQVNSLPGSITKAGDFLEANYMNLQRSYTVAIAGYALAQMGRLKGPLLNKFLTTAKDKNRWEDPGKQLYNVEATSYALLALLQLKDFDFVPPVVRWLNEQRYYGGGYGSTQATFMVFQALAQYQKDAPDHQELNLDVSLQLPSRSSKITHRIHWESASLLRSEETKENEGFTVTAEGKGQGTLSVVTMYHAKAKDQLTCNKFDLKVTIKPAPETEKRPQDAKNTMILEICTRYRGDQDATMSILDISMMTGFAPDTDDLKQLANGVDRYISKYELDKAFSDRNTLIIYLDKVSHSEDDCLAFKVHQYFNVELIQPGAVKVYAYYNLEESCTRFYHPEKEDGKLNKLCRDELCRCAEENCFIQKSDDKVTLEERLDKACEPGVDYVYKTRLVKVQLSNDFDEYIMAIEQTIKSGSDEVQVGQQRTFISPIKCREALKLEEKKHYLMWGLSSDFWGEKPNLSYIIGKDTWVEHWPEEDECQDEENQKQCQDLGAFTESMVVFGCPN
Chain of C3 convertase complex (P00751 260-764, chain 2 of 2): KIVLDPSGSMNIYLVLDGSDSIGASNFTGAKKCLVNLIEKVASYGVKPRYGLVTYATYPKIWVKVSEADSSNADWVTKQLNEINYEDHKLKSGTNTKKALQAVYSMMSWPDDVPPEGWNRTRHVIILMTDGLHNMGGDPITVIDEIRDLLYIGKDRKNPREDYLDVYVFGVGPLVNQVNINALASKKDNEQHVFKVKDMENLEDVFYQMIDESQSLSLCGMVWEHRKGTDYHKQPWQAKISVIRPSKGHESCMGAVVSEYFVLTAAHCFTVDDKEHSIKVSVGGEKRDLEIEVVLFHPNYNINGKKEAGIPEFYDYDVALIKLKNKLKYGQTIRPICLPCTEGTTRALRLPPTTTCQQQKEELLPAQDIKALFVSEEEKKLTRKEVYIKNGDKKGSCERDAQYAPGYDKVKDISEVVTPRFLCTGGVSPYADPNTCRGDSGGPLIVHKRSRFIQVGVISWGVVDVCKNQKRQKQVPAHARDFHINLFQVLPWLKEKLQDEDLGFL

B4: pCEP4-1NT8-10CT20 (other)
chain: EDCNELPPRRNTEILTGSWSDQTYPEGTQAIYKCRPGYRSLGNVIMVCRKGEWVALNPLRKCQKRPCGHPGDTPFGTFTLTGGNVFEYGVKAVYTCNEGYQLLGEINYRECDTDGWTNDIPICEVVKCLPVTAPENGKIVSSAMEPDREYHFGQAVRFVCNSGYKIEGDEEMHCSDDGFWSKEKPKCVEISCKSPDVINGSPISQKIIYKENERFQYKCNMGYEYSERGDAVCTESGWRPLPSCEEKSCDNPYIPNGDYSPLRIKHRTGDEITYQCRNGFYPATRGNTAKCTSTGWIPAPRCTLKPCDYPDIKHGGLYHENMRRPYFPVAVGKYYSYYCDEHFETPSGSYWDHIHCTQDGWSPAVPCLRKCYFPYLENGYNQNYGRKFVQGKSIDVACHPGYALPKAQTTVTCMENGWSPTPRCIRVKTCSKSSIDIENGFISESQYTYALKEKAKYQCKLGYVTADGETSGSITCGKDGWSAQPTCIKSGASGCELPKIDVHLVPDRKKDQYKVGEVLKFSCKPGFTIVGPNSVQCYHFGLSPDLPICKEQVQSCGPPPELLNGNVKEKTKEEYGHSEVVEYYCNPRFLMKGPNKIQCVDGEWTTLPVCIVEESTCGDIPELEHGWAQLSSPPYYYGDSVEFNCSESFTMIGHRSITCIHGVWTQLPQCVAIDKLKKCKSSNLIILEEHLKNKKEFDHNSNIRYRCRGKEGWIHTVCINGRWDPEVNCSMAQIQLCPPPPQIPNSHNMTTTLNYRDGEKVSVLCQENYLIQEGEEITCKDGRWQSIPLCVEKIPCSQPPQIEHGTINSSRSSQESYAHGTKLSYTCEGGFRISEENETTCYMGKWSSPPQCEGLPCKSPPEISHGVVAHMSDSYQYGEEVTYKCFEGFGIDGPAIAKCLGEKWSHPPSCIKTDCLSLPSFENAIPMGEKKDVYKAGEQVTYTCATYYKMDGASNVTCINSRWTGRPTCRDTSCVNPPTVQNAYIVSRQMSKYPSGERVRYQCRSPYEMFGDEEVMCLNGNWTEPPQCKDSTGKCGPPPPIDNGDITSFPLSVYAPASSVEYQCQNLYQLEGNKRITCRNGQWSEPPKCLHPCVISREIMENYNIALRWTAKQKLYSRTGESVEFVCKRGYRLSSRSHTLRTTCWDGKLEYPTCAKRGGSGHHHHHH
C3 convertase activity % of the control: 107 % of the control
C3 convertase activity IC50: 0.338 µg/mL

B5: pCEP4-1NT7-13CT20 (other)
chain: EDCNELPPRRNTEILTGSWSDQTYPEGTQAIYKCRPGYRSLGNVIMVCRKGEWVALNPLRKCQKRPCGHPGDTPFGTFTLTGGNVFEYGVKAVYTCNEGYQLLGEINYRECDTDGWTNDIPICEVVKCLPVTAPENGKIVSSAMEPDREYHFGQAVRFVCNSGYKIEGDEEMHCSDDGFWSKEKPKCVEISCKSPDVINGSPISQKIIYKENERFQYKCNMGYEYSERGDAVCTESGWRPLPSCEEKSCDNPYIPNGDYSPLRIKHRTGDEITYQCRNGFYPATRGNTAKCTSTGWIPAPRCTLKPCDYPDIKHGGLYHENMRRPYFPVAVGKYYSYYCDEHFETPSGSYWDHIHCTQDGWSPAVPCLRKCYFPYLENGYNQNYGRKFVQGKSIDVACHPGYALPKAQTTVTCMENGWSPTPRCIRVKTGASGCKSSNLIILEEHLKNKKEFDHNSNIRYRCRGKEGWIHTVCINGRWDPEVNCSMAQIQLCPPPPQIPNSHNMTTTLNYRDGEKVSVLCQENYLIQEGEEITCKDGRWQSIPLCVEKIPCSQPPQIEHGTINSSRSSQESYAHGTKLSYTCEGGFRISEENETTCYMGKWSSPPQCEGLPCKSPPEISHGVVAHMSDSYQYGEEVTYKCFEGFGIDGPAIAKCLGEKWSHPPSCIKTDCLSLPSFENAIPMGEKKDVYKAGEQVTYTCATYYKMDGASNVTCINSRWTGRPTCRDTSCVNPPTVQNAYIVSRQMSKYPSGERVRYQCRSPYEMFGDEEVMCLNGNWTEPPQCKDSTGKCGPPPPIDNGDITSFPLSVYAPASSVEYQCQNLYQLEGNKRITCRNGQWSEPPKCLHPCVISREIMENYNIALRWTAKQKLYSRTGESVEFVCKRGYRLSSRSHTLRTTCWDGKLEYPTCAKRGGSGHHHHHH
C3 convertase activity % of the control: 7 % of the control
C3 convertase activity IC50: 1.93 µg/mL

B6: pCEP4-1NT7-19CT20 (other)
chain: EDCNELPPRRNTEILTGSWSDQTYPEGTQAIYKCRPGYRSLGNVIMVCRKGEWVALNPLRKCQKRPCGHPGDTPFGTFTLTGGNVFEYGVKAVYTCNEGYQLLGEINYRECDTDGWTNDIPICEVVKCLPVTAPENGKIVSSAMEPDREYHFGQAVRFVCNSGYKIEGDEEMHCSDDGFWSKEKPKCVEISCKSPDVINGSPISQKIIYKENERFQYKCNMGYEYSERGDAVCTESGWRPLPSCEEKSCDNPYIPNGDYSPLRIKHRTGDEITYQCRNGFYPATRGNTAKCTSTGWIPAPRCTLKPCDYPDIKHGGLYHENMRRPYFPVAVGKYYSYYCDEHFETPSGSYWDHIHCTQDGWSPAVPCLRKCYFPYLENGYNQNYGRKFVQGKSIDVACHPGYALPKAQTTVTCMENGWSPTPRCIRVKTGASGCGPPPPIDNGDITSFPLSVYAPASSVEYQCQNLYQLEGNKRITCRNGQWSEPPKCLHPCVISREIMENYNIALRWTAKQKLYSRTGESVEFVCKRGYRLSSRSHTLRTTCWDGKLEYPTCAKRGGSGHHHHHH
C3 convertase activity % of the control: 12 % of the control
C3 convertase activity IC50: 1.09 µg/mL

Results, then the binder that gave them:

C3 convertase activity % of the control: 14 % of the control
C3 convertase activity IC50: 0.671 µg/mL
B1: pCEP4-1NT10-14CT20 (other)
chain: EDCNELPPRRNTEILTGSWSDQTYPEGTQAIYKCRPGYRSLGNVIMVCRKGEWVALNPLRKCQKRPCGHPGDTPFGTFTLTGGNVFEYGVKAVYTCNEGYQLLGEINYRECDTDGWTNDIPICEVVKCLPVTAPENGKIVSSAMEPDREYHFGQAVRFVCNSGYKIEGDEEMHCSDDGFWSKEKPKCVEISCKSPDVINGSPISQKIIYKENERFQYKCNMGYEYSERGDAVCTESGWRPLPSCEEKSCDNPYIPNGDYSPLRIKHRTGDEITYQCRNGFYPATRGNTAKCTSTGWIPAPRCTLKPCDYPDIKHGGLYHENMRRPYFPVAVGKYYSYYCDEHFETPSGSYWDHIHCTQDGWSPAVPCLRKCYFPYLENGYNQNHGRKFVQGKSIDVACHPGYALPKAQTTVTCMENGWSPTPRCIRVKTCSKSSIDIENGFISESQYTYALKEKAKYQCKLGYVTADGETSGSITCGKDGWSAQPTCIKSCDIPVFMNARTKNDFTWFKLNDTLDYECHDGYESNTGSTTGSIVCGYNGWSDLPICYERECELPKIDVHLVPDRKKDQYKVGEVLKFSCKPGFTIVGPNSVQCYHFGLSPDLPICKEQVQSGASGCPPPPQIPNSHNMTTTLNYRDGEKVSVLCQENYLIQEGEEITCKDGRWQSIPLCVEKIPCSQPPQIEHGTINSSRSSQESYAHGTKLSYTCEGGFRISEENETTCYMGKWSSPPQCEGLPCKSPPEISHGVVAHMSDSYQYGEEVTYKCFEGFGIDGPAIAKCLGEKWSHPPSCIKTDCLSLPSFENAIPMGEKKDVYKAGEQVTYTCATYYKMDGASNVTCINSRWTGRPTCRDTSCVNPPTVQNAYIVSRQMSKYPSGERVRYQCRSPYEMFGDEEVMCLNGNWTEPPQCKDSTGKCGPPPPIDNGDITSFPLSVYAPASSVEYQCQNLYQLEGNKRITCRNGQWSEPPKCLHPCVISREIMENYNIALRWTAKQKLYSRTGESVEFVCKRGYRLSSRSHTLRTTCWDGKLEYPTCAKRGGSGHHHHHH

C3 convertase activity % of the control: 8 % of the control
C3 convertase activity IC50: 1.21 µg/mL
B2: pCEP4-1NT11-16CT20 (other)
chain: EDCNELPPRRNTEILTGSWSDQTYPEGTQAIYKCRPGYRSLGNVIMVCRKGEWVALNPLRKCQKRPCGHPGDTPFGTFTLTGGNVFEYGVKAVYTCNEGYQLLGEINYRECDTDGWTNDIPICEVVKCLPVTAPENGKIVSSAMEPDREYHFGQAVRFVCNSGYKIEGDEEMHCSDDGFWSKEKPKCVEISCKSPDVINGSPISQKIIYKENERFQYKCNMGYEYSERGDAVCTESGWRPLPSCEEKSCDNPYIPNGDYSPLRIKHRTGDEITYQCRNGFYPATRGNTAKCTSTGWIPAPRCTLKPCDYPDIKHGGLYHENMRRPYFPVAVGKYYSYYCDEHFETPSGSYWDHIHCTQDGWSPAVPCLRKCYFPYLENGYNQNHGRKFVQGKSIDVACHPGYALPKAQTTVTCMENGWSPTPRCIRVKTCSKSSIDIENGFISESQYTYALKEKAKYQCKLGYVTADGETSGSITCGKDGWSAQPTCIKSCDIPVFMNARTKNDFTWFKLNDTLDYECHDGYESNTGSTTGSIVCGYNGWSDLPICYERECELPKIDVHLVPDRKKDQYKVGEVLKFSCKPGFTIVGPNSVQCYHFGLSPDLPICKEQVQSCGPPPELLNGNVKEKTKEEYGHSEVVEYYCNPRFLMKGPNKIQCVDGEWTTLPVCIVEESTGASGCKSPPEISHGVVAHMSDSYQYGEEVTYKCFEGFGIDGPAIAKCLGEKWSHPPSCIKTDCLSLPSFENAIPMGEKKDVYKAGEQVTYTCATYYKMDGASNVTCINSRWTGRPTCRDTSCVNPPTVQNAYIVSRQMSKYPSGERVRYQCRSPYEMFGDEEVMCLNGNWTEPPQCKDSTGKCGPPPPIDNGDITSFPLSVYAPASSVEYQCQNLYQLEGNKRITCRNGQWSEPPKCLHPCVISREIMENYNIALRWTAKQKLYSRTGESVEFVCKRGYRLSSRSHTLRTTCWDGKLEYPTCAKRGGSGHHHHHH

C3 convertase activity % of the control: 10 % of the control
C3 convertase activity IC50: 0.74 µg/mL
B3: pCEP4-1NT11-15CT20 (other)
chain: EDCNELPPRRNTEILTGSWSDQTYPEGTQAIYKCRPGYRSLGNVIMVCRKGEWVALNPLRKCQKRPCGHPGDTPFGTFTLTGGNVFEYGVKAVYTCNEGYQLLGEINYRECDTDGWTNDIPICEVVKCLPVTAPENGKIVSSAMEPDREYHFGQAVRFVCNSGYKIEGDEEMHCSDDGFWSKEKPKCVEISCKSPDVINGSPISQKIIYKENERFQYKCNMGYEYSERGDAVCTESGWRPLPSCEEKSCDNPYIPNGDYSPLRIKHRTGDEITYQCRNGFYPATRGNTAKCTSTGWIPAPRCTLKPCDYPDIKHGGLYHENMRRPYFPVAVGKYYSYYCDEHFETPSGSYWDHIHCTQDGWSPAVPCLRKCYFPYLENGYNQNHGRKFVQGKSIDVACHPGYALPKAQTTVTCMENGWSPTPRCIRVKTCSKSSIDIENGFISESQYTYALKEKAKYQCKLGYVTADGETSGSITCGKDGWSAQPTCIKSCDIPVFMNARTKNDFTWFKLNDTLDYECHDGYESNTGSTTGSIVCGYNGWSDLPICYERECELPKIDVHLVPDRKKDQYKVGEVLKFSCKPGFTIVGPNSVQCYHFGLSPDLPICKEQVQSCGPPPELLNGNVKEKTKEEYGHSEVVEYYCNPRFLMKGPNKIQCVDGEWTTLPVCIVEESTGASGCSQPPQIEHGTINSSRSSQESYAHGTKLSYTCEGGFRISEENETTCYMGKWSSPPQCEGLPCKSPPEISHGVVAHMSDSYQYGEEVTYKCFEGFGIDGPAIAKCLGEKWSHPPSCIKTDCLSLPSFENAIPMGEKKDVYKAGEQVTYTCATYYKMDGASNVTCINSRWTGRPTCRDTSCVNPPTVQNAYIVSRQMSKYPSGERVRYQCRSPYEMFGDEEVMCLNGNWTEPPQCKDSTGKCGPPPPIDNGDITSFPLSVYAPASSVEYQCQNLYQLEGNKRITCRNGQWSEPPKCLHPCVISREIMENYNIALRWTAKQKLYSRTGESVEFVCKRGYRLSSRSHTLRTTCWDGKLEYPTCAKRGGSGHHHHHH
